Starred links: 1 amine or outer side, 2 acyl side, 3 side chain; linkers in the order of their positions; H or OH if unused. Positions of bridges follow the written chain, without caps; N, C: chain ends. Non-standard residues stand in square brackets, D forms with d. Primed or numbered codes have the meaning given here. PyrS2″ = (S)-3-amino-1-((pent-4-en-1-yloxy)carbonyl)pyrrolidine-3-carboxylic acid (stapling residue), C=CCCCOC(=O)N1CC[C@@](N[*:1])(C(=O)[*:2])C1; B5(16) = 2-amino-2-(pent-4-en-1-yl)hept-6-enoic acid = 2,2-bis(4-pentenyl)glycine (stitching residue), C=CCCCC(CCCC=C)(N[*:1])C(=O)[*:2]; B5(24) = 2-amino-2-(pent-4-en-1-yl)hept-6-enoic acid, 2,2-bis(4-pentenyl)glycine (stitching residue), C=CCCCC(CCCC=C)(N[*:1])C(=O)[*:2]; B5(4) = 2,2-bis(4-pentenyl)glycine = 2-amino-2-(pent-4-en-1-yl)hept-6-enoic acid (stitching residue), C=CCCCC(CCCC=C)(N[*:1])C(=O)[*:2]; TfeGA = (S)-2-amino-3-((carboxymethyl)(2,2,2-trifluoroethyl)amino)propanoic acid, O=C([C@H](CN(CC(=O)[*:3])CC(F)(F)F)N[*:1])[*:2]; PyrS2 = (S)-3-amino-1-((pent-4-en-1-yloxy)carbonyl)pyrrolidine-3-carboxylic acid, C=CCCCOC(=O)N1CC[C@@](N[*:1])(C(=O)[*:2])C1; MePpzAsn = (S)-2-amino-4-(4-methylpiperazin-1-yl)-4-oxobutanoic acid, CN1CCN(C(=O)C[C@H](N[*:1])C(=O)[*:2])CC1; MorphAsn = (S)-2-amino-4-morpholino-4-oxobutanoic acid, O=C(C[C@H](N[*:1])C(=O)[*:2])N1CCOCC1; B5(3) = 2,2-bis(4-pentenyl)glycine (stitching residue), C=CCCCC(CCCC=C)(N[*:1])C(=O)[*:2]; B5 = 2-amino-2-(pent-4-en-1-yl)hept-6-enoic acid, C=CCCCC(CCCC=C)(N[*:1])C(=O)[*:2]; Nva(5-morpholino) = N[C@@H](CCCN1CCOCC1)C(=O)O; Phe(3-COOH) = N[C@@H](Cc1cccc(C(=O)O)c1)C(=O)O; 2F3MeF = Cc1cccc(C[C@H](N[*:1])C(=O)[*:2])c1F; Phe(2-Cl) = N[C@@H](Cc1ccccc1Cl)C(=O)O; Bta = N[C@@H](Cc1csc2ccccc12)C(=O)O; αAllylPro = C=CC[C@@]1(C(=O)O)CCCN1; tBuAla = CC(C)(C)C[C@H](N)C(=O)O; hSer = N[C@@H](CCO)C(=O)O
T1: B-cat-Halo (UniProt P35222 1-781)
T1 sequence (looked up): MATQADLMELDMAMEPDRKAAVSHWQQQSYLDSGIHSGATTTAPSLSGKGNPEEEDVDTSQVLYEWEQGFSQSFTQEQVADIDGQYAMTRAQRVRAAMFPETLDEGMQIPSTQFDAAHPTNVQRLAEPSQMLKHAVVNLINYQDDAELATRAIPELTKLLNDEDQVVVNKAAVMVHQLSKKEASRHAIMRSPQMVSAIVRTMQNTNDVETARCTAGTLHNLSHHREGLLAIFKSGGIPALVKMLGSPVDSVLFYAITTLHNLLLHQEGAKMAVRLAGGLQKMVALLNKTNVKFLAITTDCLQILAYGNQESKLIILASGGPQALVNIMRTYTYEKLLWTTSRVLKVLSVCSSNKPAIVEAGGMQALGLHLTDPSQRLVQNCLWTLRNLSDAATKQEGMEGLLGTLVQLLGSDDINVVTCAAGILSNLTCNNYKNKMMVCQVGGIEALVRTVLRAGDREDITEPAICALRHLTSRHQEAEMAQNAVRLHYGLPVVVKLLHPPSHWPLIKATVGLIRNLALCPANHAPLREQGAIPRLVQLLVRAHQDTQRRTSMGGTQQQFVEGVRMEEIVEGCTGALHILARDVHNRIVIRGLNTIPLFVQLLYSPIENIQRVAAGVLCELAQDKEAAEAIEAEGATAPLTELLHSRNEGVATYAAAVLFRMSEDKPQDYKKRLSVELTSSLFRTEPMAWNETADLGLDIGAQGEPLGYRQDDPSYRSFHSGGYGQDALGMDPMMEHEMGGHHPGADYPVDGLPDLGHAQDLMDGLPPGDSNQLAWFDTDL

T2: Bcat-Halo (UniProt P35222 1-781, HaloTag NanoBRET 618 Ligand bound in the assay)
T2 construct: Expressed by transfection in HEK293 cells; also called beta-catenin HaloTag NanoBRET construct; not shown: HaloTag
T2 sequence (looked up): T1 sequence (looked up)

T3: full-length beta-Catenin (Uniprot ID P35222) (Homo sapiens (Human), UniProt P35222 1-781)
T3 construct: also called bCat; B-Catenin
T3 sequence: T1 sequence (looked up)

T4: full-length beta-Catenin (Uniprot ID P35222) (Homo sapiens (Human), UniProt P35222 2-781)
T4 construct: also called bCat; B-Catenin
T4 sequence: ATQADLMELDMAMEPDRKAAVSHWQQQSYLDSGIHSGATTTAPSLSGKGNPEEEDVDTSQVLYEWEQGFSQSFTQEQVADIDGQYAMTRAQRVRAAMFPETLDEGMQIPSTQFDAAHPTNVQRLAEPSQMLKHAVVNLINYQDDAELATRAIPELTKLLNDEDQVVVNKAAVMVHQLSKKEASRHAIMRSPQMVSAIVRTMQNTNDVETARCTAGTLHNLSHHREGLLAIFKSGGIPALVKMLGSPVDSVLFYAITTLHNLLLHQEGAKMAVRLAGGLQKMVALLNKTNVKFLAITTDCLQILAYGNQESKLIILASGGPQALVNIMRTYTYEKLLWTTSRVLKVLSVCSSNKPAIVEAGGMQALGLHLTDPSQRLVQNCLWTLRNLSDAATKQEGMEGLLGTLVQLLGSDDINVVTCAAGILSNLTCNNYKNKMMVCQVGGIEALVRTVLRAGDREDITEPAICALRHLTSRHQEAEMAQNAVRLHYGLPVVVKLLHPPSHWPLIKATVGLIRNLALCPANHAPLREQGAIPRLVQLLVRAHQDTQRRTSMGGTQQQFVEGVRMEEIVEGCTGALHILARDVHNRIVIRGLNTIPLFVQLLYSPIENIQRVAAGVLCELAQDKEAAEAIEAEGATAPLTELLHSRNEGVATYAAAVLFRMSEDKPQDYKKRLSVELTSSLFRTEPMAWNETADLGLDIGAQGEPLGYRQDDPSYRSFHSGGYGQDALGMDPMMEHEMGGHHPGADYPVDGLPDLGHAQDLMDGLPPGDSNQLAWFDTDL

B1: I-1613 (peptide)
peptide: Ac-[αAllylPro]D[tBuAla][B5(3)]D[TfeGA]AAFT[PyrS2″][Phe(2-Cl)][Bta][MorphAsn]-NH2
modifications: staple 1-4, 4-11
B2: I-1611 (peptide)
peptide: Ac-[αAllylPro]D[tBuAla][B5(3)]D[TfeGA]AAFT[PyrS2″][Phe(2-Cl)][Bta][MePpzAsn]-NH2
modifications: staple 1-4, 4-11
B3: I-1609 (peptide)
peptide: Ac-[αAllylPro]D[tBuAla][B5(3)]D[TfeGA]AAFT[PyrS2][Phe(2-Cl)][Bta][Nva(5-morpholino)]-NH2
modifications: staple 1-4, 4-11
B4: I-1614 (peptide)
peptide: Ac-[αAllylPro]D[tBuAla][B5(3)]D[Phe(3-COOH)]AAFL[PyrS2″][2F3MeF][Bta][MorphAsn]-NH2
modifications: staple 1-4, 4-11
B5: I-1610 (peptide)
peptide: Ac-[αAllylPro]D[tBuAla][B5(3)]D[Phe(3-COOH)]AAFL[PyrS2][2F3MeF][Bta][Nva(5-morpholino)]-NH2
modifications: staple 1-4, 4-11
B6: I-1141 (peptide)
peptide: Ac-[αAllylPro]DF[B5(24)]DDAAFS[PyrS2″][Phe(2-Cl)][Bta]T-NH2
modifications: staple 1-4, 4-11
notes: Stapled (stitched) peptide composition; olefin isomer not specified
B7: I-1146 (peptide)
peptide: Ac-[αAllylPro]DF[B5(16)]DDAAFL[PyrS2″][Phe(2-Cl)][Bta][dT]-NH2
modifications: staple 1-4, 4-11
notes: as for B6
B8: I-1143 (peptide)
peptide: Ac-[αAllylPro]DF[B5]DDAAFS[PyrS2][Phe(2-Cl)][Bta][hSer]-NH2
modifications: staple 1-4, 4-11
notes: as for B6
B9: I-1145 (peptide)
peptide: Ac-[αAllylPro]DF[B5]DDAAFL[PyrS2][Phe(2-Cl)][Bta]T-NH2
modifications: staple 1-4, 4-11
notes: as for B6
B10: I-1144 (peptide)
peptide: Ac-[αAllylPro]DF[B5(24)]DDAAFS[PyrS2″][Phe(2-Cl)][Bta]L-NH2
modifications: staple 1-4, 4-11
notes: as for B6
B11: I-1142 (peptide)
peptide: Ac-[αAllylPro]DF[B5]DDAAFS[PyrS2][Phe(2-Cl)][Bta][dT]-NH2
modifications: staple 1-4, 4-11
notes: as for B6
B12: I-1156 (peptide)
peptide: Ac-[αAllylPro]DF[B5(4)]DDLAFT[PyrS2″][Phe(2-Cl)][Bta]S-NH2
modifications: staple 1-4, 4-11
notes: as for B6
B13: I-1153 (peptide)
peptide: Ac-[αAllylPro]DF[B5(16)]DDLAFS[PyrS2″][Phe(2-Cl)][Bta]Q-NH2
modifications: staple 1-4, 4-11
notes: as for B6
B14: I-1157 (peptide)
peptide: Ac-[αAllylPro]DF[B5(4)]DDALFT[PyrS2″][Phe(2-Cl)][Bta]S-NH2
modifications: staple 1-4, 4-11
notes: as for B6
B15: I-507 (peptide)
peptide: XDAXDEAAFQXFXT
modifications: not fully specified; Ac-PL3-Asp-Ala-B5-Asp-Glu-Ala-Ala-Phe-Gln-S8-Phe-BztA-Thr-NH2; stapled by olefin metathesis (PL3-B5 and B5-S8)
B16: I-528 (peptide)
peptide: XDIXDEAAFQXFXQ
modifications: not fully specified; Ac-PL3-Asp-Ile-B5-Asp-Glu-Ala-Ala-Phe-Gln-S8-2OMeF-BztA-Gln-NH2; stapled by olefin metathesis (PL3-B5 and B5-S8)

Target: T1, B-cat-Halo
Assay: cell-based or functional assay

NanoBRET Abs IC50 [µM] | Binder
5.2 | B1
9.8 | B2
6.7 | B3
6.4 | B4
4.1 | B5

Target: T2, Bcat-Halo
Assay: NanoBRET Abs IC50 in HEK293 cells; competitor TCF4-Luc on Bcat-Halo

IC50 [µM] | Binder
27.3 | B6
> 20 | B7
33.1 | B8
30.6 | B9
32.8 | B10
> 20 | B11
26.1 | B12
> 20 | B13
> 20 | B14

Target: T3, full-length beta-Catenin (Uniprot ID …)
Assay: FP competition: full-length beta-catenin 10 nM + 5FAM-TCF4(10-53) 10 nM
Protocol: (§1) The plate was incubated protected from light for 60 minutes at 20° C. prior to read. Reads were performed on a CLARIOstar plate reader (BMG Labtech) in duplicate, and data were fitted to a 1:1 binding model with hill slope using an in-house script. All provided concentrations are final concentrations.

IC50 [µM] | Binder
0.192 | B15
0.063 | B16

Target: T4, full-length beta-Catenin (Uniprot ID …)
Assay: fluorescence polarization competition vs 5FAM-TCF4(10-53) on full-length beta-catenin
Protocol: as §1

IC50 [µM] | Binder
0.033 | B7
0.012 | B8
0.018 | B9
0.022 | B11
0.014 | B12
0.012 | B13
0.036 | B14

Reference: patent US20240116985A1 (published 2024)
